Reference: patent US20240116985A1 (published 2024)
Starred links: 1 amine or outer side, 2 acyl side, 3 side chain; linkers in the order of their positions; H or OH if unused. Positions of bridges follow the written chain, without caps; N, C: chain ends. Non-standard residues stand in square brackets, D forms with d. Primed or numbered codes have the meaning given here. B5(15) = 2-amino-2-(pent-4-en-1-yl)hept-6-enoic acid (2,2-bis(4-pentenyl)glycine), stitching residue bearing two staples, C=CCCCC(CCCC=C)(N[*:1])C(=O)[*:2]; PyrS2″ = (S)-3-amino-1-((pent-4-en-1-yloxy)carbonyl)pyrrolidine-3-carboxylic acid (stapling residue), C=CCCCOC(=O)N1CC[C@@](N[*:1])(C(=O)[*:2])C1; B5(5) = 2,2-bis(4-pentenyl)glycine, 2-amino-2-(pent-4-en-1-yl)hept-6-enoic acid (stitching residue), C=CCCCC(CCCC=C)(N[*:1])C(=O)[*:2]; B5(33) = 2-amino-2-(pent-4-en-1-yl)hept-6-enoic acid (bis-pentenylglycine, two olefin side chains), C=CCCCC(CCCC=C)(N[*:1])C(=O)[*:2]; TfeGA = (S)-2-amino-3-((carboxymethyl)(2,2,2-trifluoroethyl)amino)propanoic acid, O=C([C@H](CN(CC(=O)[*:3])CC(F)(F)F)N[*:1])[*:2]; PyrS2 = (S)-3-amino-1-((pent-4-en-1-yloxy)carbonyl)pyrrolidine-3-carboxylic acid, C=CCCCOC(=O)N1CC[C@@](N[*:1])(C(=O)[*:2])C1; B5(3) = 2,2-bis(4-pentenyl)glycine (stitching residue), C=CCCCC(CCCC=C)(N[*:1])C(=O)[*:2]; Phe(3-COOH) = N[C@@H](Cc1cccc(C(=O)O)c1)C(=O)O; Phe(2-Cl) = N[C@@H](Cc1ccccc1Cl)C(=O)O; 1Nal = N[C@@H](Cc1cccc2ccccc12)C(=O)O; 2Nal = N[C@@H](Cc1ccc2ccccc2c1)C(=O)O; Bta = N[C@@H](Cc1csc2ccccc12)C(=O)O; αAllylPro = C=CC[C@@]1(C(=O)O)CCCN1; tBuAla = CC(C)(C)C[C@H](N)C(=O)O; 3Thi = N[C@@H](Cc1ccsc1)C(=O)O; S8 = C=CCCCCCC[C@](C)(N)C(=O)O; PyrS2(4) = not defined here; hSer = N[C@@H](CCO)C(=O)O

B1: I-2038 (peptide)
peptide: Ac-[αAllylPro]D[tBuAla][B5(3)]D[Phe(3-COOH)]AAFS[PyrS2(4)][Phe(2-Cl)][Bta]N-NH2
modifications: staple 1-4, 4-11; not fully specified; reading uncertain; also: staple isomer, earlier eluting HPLC peak
B2: I-1532 (peptide)
peptide: XDNXDEAAFQXFXQ
modifications: not fully specified; N-terminal Ac; PL3 at 1, B5 at 4, S8 at 11 (staples PL3-B5 and B5-S8 by olefin metathesis); BztA at 13; C-terminal NH2
notes: Stapled peptide composition; Same description as I-1531; separate, later eluting HPLC peak (staple isomer); also called Ac-PL3-Asp-Asn-B5-Asp-Glu-Ala-Ala-Phe-Gln-S8-Phe-BztA-Gln-NH2
B3: I-1540 (peptide)
peptide: XDQXDEAAFQXFXQ
modifications: not fully specified; N-terminal Ac; PL3 at 1, B5 at 4, S8 at 11 (staples PL3-B5 and B5-S8 by olefin metathesis); BztA at 13; C-terminal NH2
notes: Stapled peptide composition; Same description as I-1539; later eluting HPLC peak (staple isomer); also called Ac-PL3-Asp-Gln-B5-Asp-Glu-Ala-Ala-Phe-Gln-S8-Phe-BztA-Gln-NH2
B4: I-1534 (peptide)
peptide: Ac-[αAllylPro]DN[B5(15)]DEAAF[hSer][S8]F[Bta]Q-NH2
modifications: staple 1-4, 4-11; not fully specified; printed as Ac-PL3-Asp-Asn-B5-Asp-Glu-Ala-Ala-Phe-Hse-S8-Phe-BztA-Gln-NH2
notes: Stapled peptide composition; Same description as I-1535; earlier eluting HPLC peak (staple isomer); also called Ac-PL3-Asp-Asn-B5-Asp-Glu-Ala-Ala-Phe-Hse-S8-Phe-BztA-Gln-NH2
B5: I-1539 (peptide)
peptide: XDQXDEAAFQXFXQ
modifications: not fully specified; N-terminal Ac; PL3 at 1, B5 at 4, S8 at 11 (staples PL3-B5 and B5-S8 by olefin metathesis); BztA at 13; C-terminal NH2
notes: Stapled peptide composition; earlier eluting HPLC peak (staple isomer); also called Ac-PL3-Asp-Gln-B5-Asp-Glu-Ala-Ala-Phe-Gln-S8-Phe-BztA-Gln-NH2
B6: I-1535 (peptide)
peptide: Ac-[αAllylPro]DN[B5(15)]DEAAF[hSer][S8]F[Bta]Q-NH2
modifications: staple 1-4, 4-11; not fully specified; printed as Ac-PL3-Asp-Asn-B5-Asp-Glu-Ala-Ala-Phe-Hse-S8-Phe-BztA-Gln-NH2
notes: Stapled peptide composition; later eluting HPLC peak (staple isomer); also called Ac-PL3-Asp-Asn-B5-Asp-Glu-Ala-Ala-Phe-Hse-S8-Phe-BztA-Gln-NH2
B7: I-1541 (peptide)
peptide: Ac-[αAllylPro]DQ[B5(15)]DEAAFL[S8]F[Bta]Q-NH2
modifications: staple 1-4, 4-11
notes: Stapled peptide composition; also called Ac-PL3-Asp-Gln-B5-Asp-Glu-Ala-Ala-Phe-Leu-S8-Phe-BztA-Gln-NH2
B8: I-1533 (peptide)
peptide: Ac-[αAllylPro]DN[B5(15)]DEAAFL[S8]F[Bta]Q-NH2
modifications: staple 1-4, 4-11
notes: Stapled peptide composition; also called Ac-PL3-Asp-Asn-B5-Asp-Glu-Ala-Ala-Phe-Leu-S8-Phe-BztA-Gln-NH2

target: T1, B-cat-Halo (beta-catenin HaloTag NanoBRET construct expressed in HEK293 cells) (Homo sapiens (Human), UniProt P35222 1-781); experiment: cell-based or functional assay
T1 sequence: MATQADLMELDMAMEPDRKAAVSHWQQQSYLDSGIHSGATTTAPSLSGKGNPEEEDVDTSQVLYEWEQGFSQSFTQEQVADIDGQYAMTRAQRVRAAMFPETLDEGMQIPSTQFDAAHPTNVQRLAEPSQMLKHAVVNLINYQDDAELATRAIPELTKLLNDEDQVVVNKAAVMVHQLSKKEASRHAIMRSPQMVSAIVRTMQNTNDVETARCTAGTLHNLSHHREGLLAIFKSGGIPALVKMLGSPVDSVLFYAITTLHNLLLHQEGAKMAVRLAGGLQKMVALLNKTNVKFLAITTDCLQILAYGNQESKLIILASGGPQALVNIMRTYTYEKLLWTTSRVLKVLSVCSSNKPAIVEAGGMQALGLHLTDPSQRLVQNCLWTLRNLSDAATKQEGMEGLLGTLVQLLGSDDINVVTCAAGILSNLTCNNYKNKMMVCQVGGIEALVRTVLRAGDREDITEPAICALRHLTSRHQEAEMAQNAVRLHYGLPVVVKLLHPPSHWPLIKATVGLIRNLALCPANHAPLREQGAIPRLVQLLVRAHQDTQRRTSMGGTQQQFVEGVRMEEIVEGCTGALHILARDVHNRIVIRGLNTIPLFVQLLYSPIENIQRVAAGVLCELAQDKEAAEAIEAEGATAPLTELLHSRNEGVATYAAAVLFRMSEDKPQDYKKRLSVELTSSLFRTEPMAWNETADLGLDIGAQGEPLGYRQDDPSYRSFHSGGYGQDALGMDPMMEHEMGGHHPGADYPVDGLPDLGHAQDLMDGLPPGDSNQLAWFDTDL

| Binder | NanoBRET Abs IC50 [µM] |
| --- | --- |
| Ac-[αAllylPro]D[tBuAla][B5(5)]DTAA[2Nal]T[PyrS2″]F[Bta]S-NH2 (staple 1-4, 4-11) [I-1267] | 36.9 |
| Ac-[αAllylPro]D[tBuAla][B5(33)]DTAAFT[PyrS2]F[Bta]S-NH2 (staple 1-4, 4-11) [I-1263] | 20 |
| Ac-[αAllylPro]D[tBuAla][B5(33)]DTLAFT[PyrS2]F[Bta]S-NH2 (staple 1-4, 4-11) [I-1264] | > 20 |
| Ac-[αAllylPro]D[tBuAla][B5(33)]DTALFT[PyrS2]F[Bta]S-NH2 (staple 1-4, 4-11) [I-1265] | 22.7 |
| Ac-[αAllylPro]D[tBuAla][B5(5)]DTAA[1Nal]T[PyrS2″]F[Bta]S-NH2 (staple 1-4, 4-11) [I-1266] | > 20 |

target: T2, B-cat-Halo (Homo sapiens (Human), UniProt P35222 1-781); experiment: cell-based or functional assay
T2 sequence: T1 sequence

| Binder | NanoBRET Abs IC50 [µM] |
| --- | --- |
| Ac-[αAllylPro]D[tBuAla][B5(3)]D[Phe(3-COOH)]AAFF[PyrS2″][Phe(2-Cl)][Bta]N-NH2 (staple 1-4, 4-11) [I-2037] | 5 |
| Ac-[αAllylPro]D[tBuAla][B5(3)]D[Phe(3-COOH)]AAFA[PyrS2″][3Thi][Bta]N-NH2 (staple 1-4, 4-11) [I-2042] | 10 |
| Ac-[αAllylPro]D[tBuAla][B5(3)]D[TfeGA]AAFL[PyrS2″][3Thi][Bta]Q-NH2 (staple 1-4, 4-11; not fully specified (residue 9)) [I-2048] | 28.8 |
| B1 | 11.8 |
| Ac-[αAllylPro]D[tBuAla][B5(3)]D[Phe(3-COOH)]NAFL[PyrS2″][3Thi][Bta]A-NH2 (staple 1-4, 4-11) [I-2049] | 4.5 |
| Ac-[αAllylPro]D[tBuAla][B5(3)]D[Phe(3-COOH)]SAFL[PyrS2″][3Thi][Bta]A-NH2 (staple 1-4, 4-11) [I-2050] | 4.9 |
| Ac-[αAllylPro]D[tBuAla][B5(3)]D[Phe(3-COOH)]AAFN[PyrS2″][Phe(2-Cl)][Bta]F-NH2 (staple 1-4, 4-11) [I-2033] | 9.5 |
| Ac-[αAllylPro]D[tBuAla][B5(3)]D[Phe(3-COOH)]AAFS[PyrS2″][Phe(2-Cl)][Bta]N-NH2 (staple 1-4, 4-11) [I-2039] | 10.5 |
| Ac-[αAllylPro]D[tBuAla][B5(3)]D[Phe(3-COOH)]AAFL[PyrS2″][Phe(2-Cl)][Bta]NAAA-NH2 (staple 1-4, 4-11) [I-2040] | 2.8 |
| Ac-[αAllylPro]D[tBuAla][B5(3)]D[Phe(3-COOH)]AAFF[PyrS2″][3Thi][Bta]N-NH2 (staple 1-4, 4-11) [I-2044] | 2.6 |
| Ac-[αAllylPro]D[tBuAla][B5(3)]D[Phe(3-COOH)]AAFL[PyrS2″][3Thi][Bta]NAAA-NH2 (staple 1-4, 4-11) [I-2046] | 2.9 |
| Ac-[αAllylPro]D[tBuAla][B5(3)]D[Phe(3-COOH)]AAFA[PyrS2″][Phe(2-Cl)][Bta]N-NH2 (staple 1-4, 4-11; also: staple isomer, earlier eluting HPLC peak) [I-2035] | 14.5 |
| Ac-[αAllylPro]D[tBuAla][B5(3)]D[Phe(3-COOH)]AAFA[PyrS2″][Phe(2-Cl)][Bta]N-NH2 (staple 1-4, 4-11) [I-2036] | 12.9 |
| Ac-[αAllylPro]D[tBuAla][B5(3)]D[Phe(3-COOH)]AAFS[PyrS2″][3Thi][Bta]N-NH2 (staple 1-4, 4-11) [I-2045] | 13.5 |

target: T3, B-cat-Halo (beta-catenin HaloTag NanoBRET construct expressed in HEK293 cells) (UniProt P35222 1-781); experiment: cell-based or functional assay
T3 sequence (looked up): T1 sequence

| Binder | NanoBRET Abs IC50 [µM] |
| --- | --- |
| B2 | > 20 |
| B3 | 42.4 |
| B4 | > 20 |
| B5 | > 20 |
| B6 | > 20 |
| B7 | 34.7 |
| B8 | > 20 |

target: T4, full-length beta-Catenin (Uniprot ID P35222) (Homo sapiens (Human), UniProt P35222 2-781); experiment: fluorescence polarization competition; displaces 5FAM-TCF4(10-53) from full-length beta-catenin
T4 construct: full-length; also called bCat; B-Catenin
T4 sequence: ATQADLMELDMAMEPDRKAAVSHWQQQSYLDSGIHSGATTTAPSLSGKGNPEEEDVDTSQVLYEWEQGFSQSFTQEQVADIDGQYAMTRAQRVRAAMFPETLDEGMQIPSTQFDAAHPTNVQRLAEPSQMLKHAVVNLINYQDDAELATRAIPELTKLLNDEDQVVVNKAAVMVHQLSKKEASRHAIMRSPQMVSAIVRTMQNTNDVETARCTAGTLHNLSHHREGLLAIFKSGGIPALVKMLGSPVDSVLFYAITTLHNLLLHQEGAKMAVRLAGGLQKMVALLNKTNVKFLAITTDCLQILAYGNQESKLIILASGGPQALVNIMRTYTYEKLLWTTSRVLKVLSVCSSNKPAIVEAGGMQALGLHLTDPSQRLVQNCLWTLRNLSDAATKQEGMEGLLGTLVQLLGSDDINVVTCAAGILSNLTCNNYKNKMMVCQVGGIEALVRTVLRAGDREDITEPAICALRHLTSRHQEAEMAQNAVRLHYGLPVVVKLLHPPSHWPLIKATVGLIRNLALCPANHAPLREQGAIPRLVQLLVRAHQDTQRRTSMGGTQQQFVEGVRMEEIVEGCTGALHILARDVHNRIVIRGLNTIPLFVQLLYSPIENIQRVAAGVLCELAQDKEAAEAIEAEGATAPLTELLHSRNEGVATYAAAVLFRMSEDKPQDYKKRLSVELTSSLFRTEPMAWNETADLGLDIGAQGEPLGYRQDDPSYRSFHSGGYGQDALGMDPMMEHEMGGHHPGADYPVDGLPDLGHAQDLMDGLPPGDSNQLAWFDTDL
Procedure: The plate was incubated protected from light for 60 minutes at 20° C. prior to read. Reads were performed on a CLARIOstar plate reader (BMG Labtech) in duplicate, and data were fitted to a 1:1 binding model with hill slope using an in-house script. All provided concentrations are final concentrations.

| Binder | IC50 [nM] |
| --- | --- |
| B2 | 49 |
| B3 | 17 |
| B4 | 181 |
| B5 | 36 |
| B6 | 72 |
| B7 | 39 |
| B8 | 76 |
